Experimental data reported in patent US20250066451A1 (SWEDISH ORPHAN BIOVITRUM AB PUBL, published 2025).

T1: Human IL-1R-I-Fc (Creative BioMart cat. no. IL1RI-771H) (human, UniProt P14778 18-332, limits assumed)
T1 construct: Bought protein; also called hIL-1R-I-Fc; hIL-1RI-Fc; not shown: Fc part of the bought fusion
T1 sequence (looked up): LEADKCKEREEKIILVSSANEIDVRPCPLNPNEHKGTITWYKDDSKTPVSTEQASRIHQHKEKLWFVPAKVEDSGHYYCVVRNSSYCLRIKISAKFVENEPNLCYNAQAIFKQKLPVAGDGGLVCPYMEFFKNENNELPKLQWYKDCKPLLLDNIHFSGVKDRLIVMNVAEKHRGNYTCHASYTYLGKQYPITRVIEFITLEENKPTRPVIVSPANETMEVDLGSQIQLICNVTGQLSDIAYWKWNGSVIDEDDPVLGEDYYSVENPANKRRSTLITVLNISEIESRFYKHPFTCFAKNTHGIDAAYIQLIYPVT


Legend:
[1] = biological target: T1, Human IL-1R-I-Fc (Creative BioMart cat. …); experiment: ELISA screening, periplasmic extract
Description: ELISA screening of Z variants: The clones obtained after four cycles of selection were produced individually in 96-well plates and were screened for hIL-1R-I-Fc binding activity in ELISA using 1 nM target protein. In parallel, an ELISA to exclude Fc binding was run.

[2] = biological target: T1, Human IL-1R-I-Fc (Creative BioMart cat. …); experiment: ELISA titration; Z-ABD periplasmic extract, hIL-1R-I-Fc 100-0.01 nM

binding result [1]	EC50 [2] [nM]	Binder
no binding (tested: 1 nM hIL-1R-I-Fc)		LAEAKVLANRELDKYGVSDYYKNLINNAKTVEGVKALIDEILAALP (other, Negative control; also called ABD negative control) [ABD001 (wild type albumin binding domain), periplasmic extract]
	0.33	Z12917 as Z-ABD fusion (periplasmic extract) (designed binder) AQHDEALEVDAKYAKEARQAYAEIYLLPNLTRRQYTAFIRKLLDDPSQSSELLSEAKKLNDSQAPKVDYVLAEAKVLANRELDKYGVSDYYKNLINNAKTVEGVKALIDEILAALPYVPG
